Measured values published in paper PMC6405930, “Conservation of the Amyloid Interactome Across Diverse Fibrillar Structures” (Scientific Reports, 2019).

Columns and labels:
Experiment in all cases: Fibril incubation with CSF, quantitative MS/MS of bound proteins
[1] = test system: T1, Ab1 fibrils; type: binding, human; details: 4:1 w/w CSF protein:fibril
T1 construct: Synthetic amyloid β peptide 1–40 was purchased from Caslo Aps (Lyngby, Denmark); purchased Caslo Aps (Lyngby, Denmark); host or cells: synthetic peptide
Method: (§1) Plasma and CSF solutions were centrifuged (40,000 g, 20 min) to remove any aggregates. The protein concentration was determined using 280 nm absorbance assuming 1 Abs = 1 mg/mL. […] Control samples (without fibril material) were prepared similarly. All samples were incubated at room temperature for one hour under gentle agitation. Fibrils and fibril-bound proteins were pelleted by centrifugation at 17,000 g for 30 minutes. The supernatant (175 μL) was removed and the aggregate was re-suspended in 175 μL PBS and pelleted again before further preparation for gel analysis and spin-filter assisted digest for quantitative MS/MS.
(§2) The fibril-protein pellets were transferred to spin-filters (0.22 μm), washed twice in PBS (100 μL) and once in 1 M NaCl (100 μL). The fibrils and fibril-bound proteins were dissolved by one-hour incubation in 100 μL 6 M guanidinium chloride followed by elution from the spin-filter. The eluted proteins were loaded onto a 3 kDa MWCO filter unit for filter-assisted unfolding, reduction, alkylation, and trypsin digestion. In brief, samples were washed twice in 8 M urea, once in 8 M urea with 50 mM DTT, once in 8 M urea with 50 mM iodoaceteamide, and twice in 8 M Urea. The filter units were dried by centrifugation (14,000 g in 30 minutes) after every addition. Trypsin digestion was carried out with 0.25 μg sequencing grade trypsin from Sigma Aldrich in 50 mM ammonium bicarbonate overnight at 37 °C. The tryptic peptides were collected by centrifugation, acidified with TFA (0.1%) and micro-purified using POROS R2 column material (Applied Biosystems) packed in P200 pipette tips (Sarstedt).
(§3) LC-MS/MS analyses were performed on an EASY-nLC II system (Thermo Fisher Scientific) connected to a TripleTOF 5600+ mass spectrometer (Sciex) equipped with a NanoSpray III source (Sciex) and operated under Analyst TF 1.6.0 control.
(§4) The micro-purified tryptic peptides were dissolved in 0.1% formic acid, injected and trapped on an in-house packed trap column (2 cm × 100 μm I.D) with RP ReproSil-Pur C18-AQ 3 μm resin (Dr. Maisch GmbH). Peptides were eluted from the trap column and separated on a 15 cm analytical column (75 μm i.d.) packed in-house in a pulled emitter with RP ReproSil-Pur C18-AQ 3 μm resin (Dr. Maisch GmbH). Elution from the analytical column was performed with a linear gradient from 5% to 35% phase B (90% acetonitrile with 0.1% formic acid) over 20 min for protein identification and 50 min for quantitative analysis, respectively.
(§5) All samples were analysed three times, yielding nine MS/MS experiments for each fibril for both plasma and CSF. For the area-based extracted ion chromatogram (XIC) quantification, the acquisition method was set up as an information-dependent acquisition (IDA) experiment collecting up to 25 MS/MS spectra in each 1.6 sec cycle using an exclusion window of 6 sec.
(§6) XIC quantification was based on the average ion intensity of the three most abundant peptides for each protein. Only proteins quantified in at least four out of nine MS/MS experiments per fibril were included in the quantification. The total ion scores were visualized after grouping the proteins according to function (Figure S11).
(§7) For each MS/MS experiment, the ion intensities of the individual proteins were normalized to the total ion intensity of that MS/MS experiment to achieve a relative protein composition. The contribution of each protein was averaged over all nine MS/MS experiments (Tables 1 and 2).

[2] = test system: T2, Ab2 fibrils; type: binding, human; details: 4:1 w/w CSF protein:fibril
T2 construct: Two structurally distinct fibrils of the Aβ(1–40) peptide associated with AD
Method: as §1, §2, §3, §4, §5, §6, §7

[3] = target: T3, glucagon fibrils (Homo sapiens, UniProt P01275); type: binding; details: 4:1 w/w CSF protein:fibril
T3 construct: fibrils of the peptide hormone glucagon
T3 sequence (P01275 53-81 limits assumed): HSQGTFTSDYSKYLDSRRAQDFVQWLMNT
Method: as §1, §2, §3, §4, §5, §6, §7

[4] = target: T4, C-36 fibrils (Homo sapiens, UniProt P01009); type: binding; details: 4:1 w/w CSF protein:fibril
T4 construct: the 36 residue C-terminal fragment of α1-antitrypsin (C-36)
T4 sequence (P01009 383-418 limits assumed): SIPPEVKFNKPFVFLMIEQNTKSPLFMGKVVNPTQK
Method: as §1, §2, §3, §4, §5, §6, §7

[5] = target: αSN fibrils (Homo sapiens, UniProt P37840); type: binding; parameters: key to Identification status of CSF protein bound: αSN: *: Identified, but not quantified; —: Not identified in any of the samples; details: for Identification status of CSF protein bound: αSN: symbol cells
Method: as §1, §2, §3, §4, §5, §6, §7

[6] = test system: T5, FAS4-AD aggregates; type: binding, human; parameters: key to Identification status of CSF protein bound: FAS4-AD: *: Identified, but not quantified; —: Not identified in any of the samples; details: symbol cells
T5 construct: aggregates of a mutated version of the FAS1-4 domain of TGFBIp
Method: as §1, §2, §3, §4, §5, §6, §7

B1: Vitamin D-binding protein: CSF protein bound to fibrils (protein, UniProt P02774 17-474, looked up)
Vitamin D-binding protein: LERGRDYEKNKVCKEFSHLGKEDFTSLSLVLYSRKFPSGTFEQVSQLVKEVVSLTEACCAEGADPDCYDTRTSALSAKSCESNSPFPVHPGTAECCTKEGLERKLCMAALKHQPQEFPTYVEPTNDEICEAFRKDPKEYANQFMWEYSTNYGQAPLSLLVSYTKSYLSMVGSCCTSASPTVCFLKERLQLKHLSLLTTLSNRVCSQYAAYGEKKSRLSNLIKLAQKVPTADLEDVLPLAEDITNILSKCCESASEDCMAKELPEHTVKLCDNLSTKNSKFEDCCQEKTAMDVFVCTYFMPAAQLPELPDVELPTNKDVCDPGNTKVMDKYTFELSRRTHLPEVFLSKVLEPTLKSLGECCDVEDSTTCFNAKGPLLKKELSSFIDKGQELCADYSENTFTEYKKKLAERLKAKLPDATPTELAKLVNKHSDFASNCCSINSPPLYCDSEIDAELKNIL
Question: Which results are given for B1?
Answer: Relative composition of CSF proteins bound: Ab1 [1]: 0.7 ± 0.0 % of total protein; Relative composition of CSF proteins bound: Ab2 [2]: 1.1 ± 0.0 % of total protein; Relative composition of CSF proteins bound: Glucagon [3]: 0.8 ± 0.1 % of total protein; Relative composition of CSF proteins bound: C-36 [4]: 1.4 ± 0.8 % of total protein; Identification status of CSF protein bound: αSN [5]: —; Identification status of CSF protein bound: FAS4-AD [6]: —

B2: EGF-containing fibulin-like extracellular matrix protein 1: CSF protein bound to fibrils (protein, UniProt Q12805 18-493, looked up)
EGF-containing fibulin-like …: QDTEETITYTQCTDGYEWDPVRQQCKDIDECDIVPDACKGGMKCVNHYGGYLCLPKTAQIIVNNEQPQQETQPAEGTSGATTGVVAASSMATSGVLPGGGFVASAAAVAGPEMQTGRNNFVIRRNPADPQRIPSNPSHRIQCAAGYEQSEHNVCQDIDECTAGTHNCRADQVCINLRGSFACQCPPGYQKRGEQCVDIDECTIPPYCHQRCVNTPGSFYCQCSPGFQLAANNYTCVDINECDASNQCAQQCYNILGSFICQCNQGYELSSDRLNCEDIDECRTSSYLCQYQCVNEPGKFSCMCPQGYQVVRSRTCQDINECETTNECREDEMCWNYHGGFRCYPRNPCQDPYILTPENRCVCPVSNAMCRELPQSIVYKYMSIRSDRSVPSDIFQIQATTIYANTINTFRIKSGNENGEFYLRQTSPVSAMLVLVKSLSGPREHIVDLEMLTVSSIGTFRTSSVLRLTIIVGPFSF
Question: For B2, which “Relative composition of CSF proteins bound: Ab1” value [1] is on record?
Answer: 0.6 ± 0.2 % of total protein

Question: And the “Relative composition of CSF proteins bound: Ab2” value [2]?
Answer: 1.0 ± 0.3 % of total protein

Question: And the “Relative composition of CSF proteins bound: Glucagon” value [3]?
Answer: 0.2 ± 0.1 % of total protein

Question: What about the “Relative composition of CSF proteins bound: C-36” value [4] of the same molecule?
Answer: 0.7 ± 0.1 % of total protein

Question: And the “Identification status of CSF protein bound: αSN” value [5]?
Answer: *

Question: What about the “Identification status of CSF protein bound: FAS4-AD” value [6] of the same molecule?
Answer: —

B3: Mimecan: CSF protein bound to fibrils (protein, UniProt P20774 21-298, looked up)
Mimecan: PPTQQDSRIIYDYGTDNFEESIFSQDYEDKYLDGKNIKEKETVIIPNEKSLQLQKDEAITPLPPKKENDEMPTCLLCVCLSGSVYCEEVDIDAVPPLPKESAYLYARFNKIKKLTAKDFADIPNLRRLDFTGNLIEDIEDGTFSKLSLLEELSLAENQLLKLPVLPPKLTLFNAKYNKIKSRGIKANAFKKLNNLTFLYLDHNALESVPLNLPESLRVIHLQFNNIASITDDTFCKANDTSYIRDRIEEIRLEGNPIVLGKHPNSFICLKRLPIGSYF
Question: Which “Relative composition of CSF proteins bound: Ab1” value [1] does the source give for B3 here?
Answer: 0.5 ± 0.0 % of total protein

Question: What about the “Relative composition of CSF proteins bound: Ab2” value [2] of the same molecule?
Answer: 0.6 ± 0.2 % of total protein

Question: And the “Relative composition of CSF proteins bound: Glucagon” value [3]?
Answer: 0.2 ± 0.1 % of total protein

Question: And the “Relative composition of CSF proteins bound: C-36” value [4]?
Answer: 0.4 ± 0.1 % of total protein

Question: What about the “Relative composition of CSF proteins bound: αSN” value ([5]; 4:1 w/w CSF protein:fibril) of the same molecule?
Answer: 2.1 ± 0.9 % of total protein

Question: And the “Identification status of CSF protein bound: FAS4-AD” value [6]?
Answer: *

B4: SPARC-like protein 1: CSF protein bound to fibrils (protein, UniProt Q14515 17-664, looked up)
SPARC-like protein 1: IPTNARLLSDHSKPTAETVAPDNTAIPSLRAEAEENEKETAVSTEDDSHHKAEKSSVLKSKEESHEQSAEQGKSSSQELGLKDQEDSDGHLSVNLEYAPTEGTLDIKEDMSEPQEKKLSENTDFLAPGVSSFTDSNQQESITKREENQEQPRNYSHHQLNRSSKHSQGLRDQGNQEQDPNISNGEEEEEKEPGEVGTHNDNQERKTELPREHANSKQEEDNTQSDDILEESDQPTQVSKMQEDEFDQGNQEQEDNSNAEMEEENASNVNKHIQETEWQSQEGKTGLEAISNHKETEEKTVSEALLMEPTDDGNTTPRNHGVDDDGDDDGDDGGTDGPRHSASDDYFIPSQAFLEAERAQSIAYHLKIEEQREKVHENENIGTTEPGEHQEAKKAENSSNEEETSSEGNMRVHAVDSCMSFQCKRGHICKADQQGKPHCVCQDPVTCPPTKPLDQVCGTDNQTYASSCHLFATKCRLEGTKKGHQLQLDYFGACKSIPTCTDFEVIQFPLRMRDWLKNILMQLYEANSEHAGYLNEKQRNKVKKIYLDEKRLLAGDHPIDLLLRDFKKNYHMYVYPVHWQFSELDQHPMDRVLTHSELAPLRASLVPMEHCITRFFEECDPNKDKHITLKEWGHCFGIKEEDIDENLLF
Question: For B4, which “Relative composition of CSF proteins bound: Ab1” value [1] is on record?
Answer: 1.2 ± 0.1 % of total protein

Question: What about the “Relative composition of CSF proteins bound: Ab2” value [2] of the same molecule?
Answer: 1.4 ± 0.0 % of total protein

Question: And the “Relative composition of CSF proteins bound: Glucagon” value [3]?
Answer: 0.4 ± 0.1 % of total protein

Question: And the “Relative composition of CSF proteins bound: C-36” value [4]?
Answer: 0.8 ± 0.4 % of total protein

Question: What about the “Identification status of CSF protein bound: αSN” value [5] of the same molecule?
Answer: *

Question: What about the “Identification status of CSF protein bound: FAS4-AD” value [6] of the same molecule?
Answer: —
